From the supplement of paper PMC7125110 come the findings set out here.

± gives the standard error. Fewer inactive variants are shown than the library holds. Bounds are passed on as bounds.

To fix the notation:
B1: glmS ribozyme (parent)
chain: AUAAAAGCGCCAGAACUACAGAAAUGUAGUUGACGAGGAGGAGGUUUAUCGAAUUUUCGGCGGAUGCCUCCAAA

Common to all, as to conditions: with glucosamine-6-phosphate
Variants of B1 are the subject of data set [1]. Put plainly: self-cleavage kobs at 40 uM GlcN6P; higher = faster cleavage; RNA array. Put shortly: (§1)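 Glucosamine-6-phosphate (40 μM to 10 mM) in HEPES/KCl/Mg(OAc)2 buffer was flowed over sequenced MiSeq chips, and tiles were imaged over ~14 h. Barcoded ribozyme variants there had been transcribed in situ by E. coli RNA polymerase and were tracked through a hybridised Cy3 probe at 37 °C. One- or two-exponential decay fits to per-tile medians, normalised to baseline and to non-cleaving reference variants, gave kobs. kcat and KM came from weighted Michaelis–Menten fits across concentrations.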

Variants of B1 are the subject of data set [2]. In words: self-cleavage kobs at 160 uM GlcN6P; higher = faster cleavage; RNA array. The method in brief: as §1
The variants in data set [3] derive from B1. In words: self-cleavage kobs at 2500 uM GlcN6P; higher = faster cleavage; RNA array. The method in brief:
as §1

Data set [4] covers variants of B1. Put plainly: self-cleavage kobs at 10000 uM GlcN6P; higher = faster cleavage; RNA array. Put shortly: as §1
In data set [5] the parent is B1. Put plainly: self-cleavage kobs at 640 uM GlcN6P; higher = faster cleavage; RNA array. The method in brief:
as §1

With G43U G44A A48G C58A U69A C71G, in the data set with glucosamine-6-phosphate [1], the “self-cleavage kobs at 40 uM GlcN6P” value was below 1e-05 s⁻¹. Also, the “self-cleavage kobs at 160 uM GlcN6P” value in the data set with glucosamine-6-phosphate [2] was below 1e-05 s⁻¹. In the data set with glucosamine-6-phosphate [3], the “self-cleavage kobs at 2500 uM GlcN6P” value is below 1e-05 s⁻¹. In addition, in the data set with glucosamine-6-phosphate [4], the “self-cleavage kobs at 10000 uM GlcN6P” value is below 1e-05 s⁻¹.
Turning to C8U U55A C58A, the “self-cleavage kobs at 40 uM GlcN6P” value with glucosamine-6-phosphate [1] was below 1e-05 s⁻¹. Further, in the data set with glucosamine-6-phosphate [5], the “self-cleavage kobs at 640 uM GlcN6P” value is below 1e-05 s⁻¹. The “self-cleavage kobs at 10000 uM GlcN6P” value in the data set with glucosamine-6-phosphate [4] is below 1e-05 s⁻¹.
In the case of G7A C58U C68G, the “self-cleavage kobs at 40 uM GlcN6P” value in the data set with glucosamine-6-phosphate [1] came out at 0.000285 ± 7.7e-05 s⁻¹.
C16U G41A G59U: in the data set with glucosamine-6-phosphate [1], the “self-cleavage kobs at 40 uM GlcN6P” value is below 1e-05 s⁻¹. For the same variant, the “self-cleavage kobs at 640 uM GlcN6P” value with glucosamine-6-phosphate [5] is below 1e-05 s⁻¹. Moreover, in the data set with glucosamine-6-phosphate [3], the “self-cleavage kobs at 2500 uM GlcN6P” value was below 1e-05 s⁻¹. The “self-cleavage kobs at 10000 uM GlcN6P” value in the data set with glucosamine-6-phosphate [4] is below 1e-05 s⁻¹.
In the case of U31A G44C, the “self-cleavage kobs at 40 uM GlcN6P” value in the data set with glucosamine-6-phosphate [1] was below 1e-05 s⁻¹. Moreover, in the data set with glucosamine-6-phosphate [4], the “self-cleavage kobs at 10000 uM GlcN6P” value was 6.05e-05 ± 1.8e-05 s⁻¹.
In the case of G41C C67U, the “self-cleavage kobs at 40 uM GlcN6P” value with glucosamine-6-phosphate [1] is below 1e-05 s⁻¹. Moreover, the “self-cleavage kobs at 160 uM GlcN6P” value in the data set with glucosamine-6-phosphate [2] was below 1e-05 s⁻¹. In addition, the “self-cleavage kobs at 640 uM GlcN6P” value in the data set with glucosamine-6-phosphate [5] is below 1e-05 s⁻¹. Also, in the data set with glucosamine-6-phosphate [3], the “self-cleavage kobs at 2500 uM GlcN6P” value is below 1e-05 s⁻¹. Also, in the data set with glucosamine-6-phosphate [4], the “self-cleavage kobs at 10000 uM GlcN6P” value is below 1e-05 s⁻¹.
Consider C10U G13C G40A, for which, in the data set with glucosamine-6-phosphate [1], the “self-cleavage kobs at 40 uM GlcN6P” value is below 1e-05 s⁻¹. Further, the “self-cleavage kobs at 160 uM GlcN6P” value in the data set with glucosamine-6-phosphate [2] was below 1e-05 s⁻¹.
Consider G32A U47C A48G C71U, for which the “self-cleavage kobs at 40 uM GlcN6P” value with glucosamine-6-phosphate [1] was below 1e-05 s⁻¹.
Regarding G51A C58G, the “self-cleavage kobs at 40 uM GlcN6P” value with glucosamine-6-phosphate [1] was below 1e-05 s⁻¹. Also, the “self-cleavage kobs at 10000 uM GlcN6P” value with glucosamine-6-phosphate [4] is below 1e-05 s⁻¹.
Turning to G7U C16G G59A, the “self-cleavage kobs at 40 uM GlcN6P” value in the data set with glucosamine-6-phosphate [1] was below 1e-05 s⁻¹. For the same variant, the “self-cleavage kobs at 640 uM GlcN6P” value with glucosamine-6-phosphate [5] is below 1e-05 s⁻¹. Further, the “self-cleavage kobs at 10000 uM GlcN6P” value with glucosamine-6-phosphate [4] was below 1e-05 s⁻¹.
C8G U45C G62A: in the data set with glucosamine-6-phosphate [1], the “self-cleavage kobs at 40 uM GlcN6P” value is below 1e-05 s⁻¹. In the data set with glucosamine-6-phosphate [4], the “self-cleavage kobs at 10000 uM GlcN6P” value was below 1e-05 s⁻¹.
In the case of A14C A15C C50G G60C C67U, the “self-cleavage kobs at 40 uM GlcN6P” value with glucosamine-6-phosphate [1] amounted to 6.66e-05 ± 3e-05 s⁻¹.
For the variant A6G C50G, in the data set with glucosamine-6-phosphate [1], the “self-cleavage kobs at 40 uM GlcN6P” value turned out to be 0.000151 ± 3.1e-05 s⁻¹. For the same variant, in the data set with glucosamine-6-phosphate [2], the “self-cleavage kobs at 160 uM GlcN6P” value worked out at 9.76e-05 ± 3.1e-05 s⁻¹. In the data set with glucosamine-6-phosphate [5], the “self-cleavage kobs at 640 uM GlcN6P” value amounted to 0.000503 ± 0.00012 s⁻¹. Further, the “self-cleavage kobs at 2500 uM GlcN6P” value in the data set with glucosamine-6-phosphate [3] was determined as 0.000106 ± 3.4e-05 s⁻¹. Further, the “self-cleavage kobs at 10000 uM GlcN6P” value in the data set with glucosamine-6-phosphate [4] turned out to be 3.84e-05 ± 1.3e-05 s⁻¹.
For the variant A14G G59A U65G G66A, the “self-cleavage kobs at 40 uM GlcN6P” value in the data set with glucosamine-6-phosphate [1] was below 1e-05 s⁻¹. The “self-cleavage kobs at 2500 uM GlcN6P” value with glucosamine-6-phosphate [3] was below 1e-05 s⁻¹.
A6G C58A C67G: in the data set with glucosamine-6-phosphate [1], the “self-cleavage kobs at 40 uM GlcN6P” value came out at 0.000658 ± 0.00021 s⁻¹. Also, in the data set with glucosamine-6-phosphate [4], the “self-cleavage kobs at 10000 uM GlcN6P” value was 0.000123 ± 3.5e-05 s⁻¹.
For the variant C34G G44U, the “self-cleavage kobs at 40 uM GlcN6P” value in the data set with glucosamine-6-phosphate [1] was below 1e-05 s⁻¹. The “self-cleavage kobs at 160 uM GlcN6P” value with glucosamine-6-phosphate [2] is below 1e-05 s⁻¹. For the same variant, the “self-cleavage kobs at 640 uM GlcN6P” value with glucosamine-6-phosphate [5] was below 1e-05 s⁻¹. Besides, the “self-cleavage kobs at 10000 uM GlcN6P” value with glucosamine-6-phosphate [4] was below 1e-05 s⁻¹.
Turning to C16G G35A, the “self-cleavage kobs at 40 uM GlcN6P” value in the data set with glucosamine-6-phosphate [1] is below 1e-05 s⁻¹. The “self-cleavage kobs at 160 uM GlcN6P” value with glucosamine-6-phosphate [2] is below 1e-05 s⁻¹. Besides, the “self-cleavage kobs at 640 uM GlcN6P” value with glucosamine-6-phosphate [5] is below 1e-05 s⁻¹. Further, in the data set with glucosamine-6-phosphate [4], the “self-cleavage kobs at 10000 uM GlcN6P” value is below 1e-05 s⁻¹.
A14U G35C A42C: the “self-cleavage kobs at 40 uM GlcN6P” value in the data set with glucosamine-6-phosphate [1] is below 1e-05 s⁻¹. Moreover, the “self-cleavage kobs at 160 uM GlcN6P” value in the data set with glucosamine-6-phosphate [2] was below 1e-05 s⁻¹.
Regarding A6G U57G, the “self-cleavage kobs at 40 uM GlcN6P” value in the data set with glucosamine-6-phosphate [1] was below 1e-05 s⁻¹. Also, in the data set with glucosamine-6-phosphate [2], the “self-cleavage kobs at 160 uM GlcN6P” value was below 1e-05 s⁻¹. In addition, in the data set with glucosamine-6-phosphate [5], the “self-cleavage kobs at 640 uM GlcN6P” value was below 1e-05 s⁻¹. For the same variant, in the data set with glucosamine-6-phosphate [3], the “self-cleavage kobs at 2500 uM GlcN6P” value is below 1e-05 s⁻¹. Also, in the data set with glucosamine-6-phosphate [4], the “self-cleavage kobs at 10000 uM GlcN6P” value is below 1e-05 s⁻¹.
Turning to A6G U57A, the “self-cleavage kobs at 40 uM GlcN6P” value with glucosamine-6-phosphate [1] was below 1e-05 s⁻¹. Besides, the “self-cleavage kobs at 160 uM GlcN6P” value in the data set with glucosamine-6-phosphate [2] is below 1e-05 s⁻¹. Moreover, the “self-cleavage kobs at 640 uM GlcN6P” value with glucosamine-6-phosphate [5] was below 1e-05 s⁻¹.
Turning to C11A U49C, in the data set with glucosamine-6-phosphate [1], the “self-cleavage kobs at 40 uM GlcN6P” value was below 1e-05 s⁻¹. The “self-cleavage kobs at 160 uM GlcN6P” value with glucosamine-6-phosphate [2] was below 1e-05 s⁻¹. Also, the “self-cleavage kobs at 2500 uM GlcN6P” value with glucosamine-6-phosphate [3] was below 1e-05 s⁻¹. Moreover, the “self-cleavage kobs at 10000 uM GlcN6P” value with glucosamine-6-phosphate [4] was below 1e-05 s⁻¹.
Turning to G35C G59U C61U, the “self-cleavage kobs at 40 uM GlcN6P” value with glucosamine-6-phosphate [1] was below 1e-05 s⁻¹. The “self-cleavage kobs at 160 uM GlcN6P” value in the data set with glucosamine-6-phosphate [2] was below 1e-05 s⁻¹. For the same variant, the “self-cleavage kobs at 640 uM GlcN6P” value with glucosamine-6-phosphate [5] is below 1e-05 s⁻¹. Further, the “self-cleavage kobs at 2500 uM GlcN6P” value with glucosamine-6-phosphate [3] is below 1e-05 s⁻¹. The “self-cleavage kobs at 10000 uM GlcN6P” value in the data set with glucosamine-6-phosphate [4] is below 1e-05 s⁻¹.
